{"source": "the supplement of paper PMC12042874", "note": "± gives the uncertainty stated by the source.", "data": [{"experiment": "amyloid nucleation score (Sup35N fusion, yeast selection) (log enrichment); library NNK2; higher = more nucleation; inactive = no reads after selection", "how_it_was_run": "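The nucleation score is the log enrichment of output over input reads, calculated with DiMSum and centred on the mode score of non-aggregating sequences. Sequences with under 100 input reads were excluded. Reads came from Illumina sequencing of plasmid inserts from psi-negative yeast expressing Sup35N fused to peptides of 20 random codons, induced 24 hours with 100 μM copper sulfate and grown 7 days at 30°C without adenine and uracil.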", "values": [{"substance": "DIDGWCTIYMDIVYMKTCPY", "amyloid nucleation score": "0.262 ± 0.56"}, {"substance": "SMKNK", "amyloid nucleation score": "0.185 ± 0.4"}, {"substance": "ERIHSSCNYTFAFLLGFMSV", "amyloid nucleation score": "0.053 ± 0.54"}, {"substance": "YTYSHAYPRWTMFIWWHDLE", "amyloid nucleation score": "-0.378 ± 0.31"}, {"substance": "RKWQED", "amyloid nucleation score": "0.488 ± 0.47"}, {"substance": "YHPTLVLGYQLTLLFMAFL", "amyloid nucleation score": "0.613 ± 0.74"}, {"substance": "RMWDSSCSLRGMRLGVYRAR", "amyloid nucleation score": "0.396 ± 0.53"}, {"substance": "IMLGTFMRNLQNLQHFVRHV", "amyloid nucleation score": "0.337 ± 0.57"}, {"substance": "LSNLWSSSF", "amyloid nucleation score": "inactive"}, {"substance": "YGEELE", "amyloid nucleation score": "inactive"}, {"substance": "RFVIVIPQFYYVYFLRRSWT", "amyloid nucleation score": "-1.24 ± 1"}, {"substance": "VFTVLYALSCLSFIFVTV", "amyloid nucleation score": "4.04 ± 0.047"}, {"substance": "LVSVVWTKCRRGQRGVLVAS", "amyloid nucleation score": "1.06 ± 0.38"}, {"substance": "DMVDLCSKDMSRALFGPNMS", "amyloid nucleation score": "5.39 ± 0.059"}, {"substance": "RANGLSFCTSLLLGEYLNNG", "amyloid nucleation score": "2.63 ± 0.078"}, {"substance": "WWLMWS", "amyloid nucleation score": "0.691 ± 0.53"}, {"substance": "SRLNNLRYLYYLTGFRSLMT", "amyloid nucleation score": "inactive"}, {"substance": "GRLGSAPQKR", "amyloid nucleation score": "0.686 ± 0.32"}, {"substance": "NIRFTSLFRLCYFSCDSVSN", "amyloid nucleation score": "5.301 ± 0.035"}, {"substance": "IRSNIGNSWNTLIFVYCCYT", "amyloid nucleation score": "6.415 ± 0.049"}, {"substance": "TLLNAYNNTLVWIWFVSMPV", "amyloid nucleation score": "5.46 ± 0.081"}, {"substance": "SDGVNIMK", "amyloid nucleation score": "2.83 ± 0.18"}, {"substance": "YLFSLKQLWF", "amyloid nucleation score": "5.06 ± 0.078"}, {"substance": "GITFPGFI", "amyloid nucleation score": "0.115 ± 0.28"}, {"substance": "STHSGLSMT", "amyloid nucleation score": "0.877 ± 0.27"}, {"substance": "VIIINIVFKSGMGQLLGHRR", "amyloid nucleation score": "6.53 ± 0.074"}, {"substance": "RCYGVRTHGNLKQIMTKMTE", "amyloid nucleation score": "0.602 ± 0.24"}, {"substance": "WNWRVNDGVPGMTYVKAYSS", "amyloid nucleation score": "-0.672 ± 0.42"}, {"substance": "VSIIRIKYSNQAISVRNSDS", "amyloid nucleation score": "4.155 ± 0.038"}, {"substance": "FMIFDVGNSGKYLLSVS", "amyloid nucleation score": "-0.774 ± 0.27"}, {"substance": "SYYDGCQS", "amyloid nucleation score": "0.646 ± 0.49"}, {"substance": "STFSYGCSSTGAFCRLLCRM", "amyloid nucleation score": "0.516 ± 0.64"}, {"substance": "RMNWGSNFLEE", "amyloid nucleation score": "-0.663 ± 0.32"}, {"substance": "WFDYGR", "amyloid nucleation score": "inactive"}, {"substance": "PNSGFSGNCIKVIQHNLQG", "amyloid nucleation score": "inactive"}, {"substance": "VGKWVRGQTSLLLVAWSAIY", "amyloid nucleation score": "0.28 ± 0.61"}, {"substance": "QNAMGTSVDYNVNFVYVGNL", "amyloid nucleation score": "3.38 ± 0.089"}, {"substance": "ATVRFWWKFVYACGMAWWWV", "amyloid nucleation score": "0.001 ± 0.55"}, {"substance": "WCKQGVGCDLGAMVELSKGG", "amyloid nucleation score": "1.22 ± 0.28"}, {"substance": "TFAATIGTCMVEILSMGSPG", "amyloid nucleation score": "0.603 ± 0.52"}, {"substance": "GSVVHLQSCNISLIAYGLHG", "amyloid nucleation score": "8.298 ± 0.054"}, {"substance": "ASHRVNGEVRYRRWSVLKRM", "amyloid nucleation score": "0.839 ± 0.24"}, {"substance": "YTNAFRPRSVRLTVIRIGQY", "amyloid nucleation score": "4.07 ± 0.11"}, {"substance": "IAHRVITMP", "amyloid nucleation score": "-0.277 ± 1.1"}, {"substance": "ILCYMFVYYAYA", "amyloid nucleation score": "0.016 ± 1.1"}, {"substance": "LLRMLSYR", "amyloid nucleation score": "0.138 ± 1.1"}, {"substance": "WYNILLHNSAAEYLTY", "amyloid nucleation score": "-0.296 ± 0.34"}, {"substance": "GNRVWERTNFELSSDRESGV", "amyloid nucleation score": "0.832 ± 0.27"}, {"substance": "LVGKFNWCEVQKKCSRFRCR", "amyloid nucleation score": "-0.29 ± 0.62"}, {"substance": "IKEFYISQNFVNSHLRLANM", "amyloid nucleation score": "-1.51 ± 1.1"}, {"substance": "ANSAYCIGLCLGNCFMSYFC", "amyloid nucleation score": "7.452 ± 0.043"}, {"substance": "TFATIRVAFMVMCRFDG", "amyloid nucleation score": "3.23 ± 0.084"}, {"substance": "LRSCRMSDDMK", "amyloid nucleation score": "1.18 ± 0.34"}, {"substance": "ATARS", "amyloid nucleation score": "0.701 ± 0.29"}, {"substance": "QFGYRCTTPC", "amyloid nucleation score": "0.522 ± 0.3"}, {"substance": "QLVLT", "amyloid nucleation score": "1.14 ± 0.21"}, {"substance": "FCIVQIMDVTVLGSTSATID", "amyloid nucleation score": "5.592 ± 0.054"}, {"substance": "CISVPMIFDFTIWA", "amyloid nucleation score": "6.64 ± 0.071"}, {"substance": "FYWNMYGDFDFDPSAPGTNG", "amyloid nucleation score": "inactive"}, {"substance": "GALGTRRFSGMCLVCESRSG", "amyloid nucleation score": "5.28 ± 0.097"}, {"substance": "LSIGSQAI", "amyloid nucleation score": "0.501 ± 0.38"}, {"substance": "CLSFIILMWLDRNVGMVQI", "amyloid nucleation score": "-0.579 ± 0.49"}, {"substance": "WRNCYVYRTVLR", "amyloid nucleation score": "2.36 ± 0.07"}, {"substance": "VKIMMELPLKIDGFLSHVRR", "amyloid nucleation score": "0.088 ± 0.24"}, {"substance": "VLSNYGNYISDWQLQLRLT", "amyloid nucleation score": "-0.149 ± 0.32"}, {"substance": "MSGFKGVITSTFIANSLLPM", "amyloid nucleation score": "-1.17 ± 0.48"}, {"substance": "VVVRGVQAGCGKPPVSRLRI", "amyloid nucleation score": "0.838 ± 0.23"}, {"substance": "DALLNFTRLSITNNVNIGP", "amyloid nucleation score": "5.894 ± 0.046"}, {"substance": "TQWSFGGYQRVGGLVVHAKR", "amyloid nucleation score": "3.03 ± 0.17"}, {"substance": "VLLLAQHVLSGSNFTMG", "amyloid nucleation score": "3.44 ± 0.045"}, {"substance": "SDLSKKSLLKVLMAS", "amyloid nucleation score": "-0.375 ± 1.1"}, {"substance": "TQFFFDFFE", "amyloid nucleation score": "0.432 ± 0.4"}, {"substance": "LNNYSSGFRGMIVFFVVVYV", "amyloid nucleation score": "-1.06 ± 0.61"}, {"substance": "CCGGVRMMEELRCSTWSRVV", "amyloid nucleation score": "0.868 ± 0.26"}, {"substance": "DCLLCFFGSHSILVRPILKV", "amyloid nucleation score": "inactive"}, {"substance": "RGVGYYRGSICTWFNWAAMW", "amyloid nucleation score": "1.83 ± 0.16"}, {"substance": "IAMFT", "amyloid nucleation score": "6.299 ± 0.044"}, {"substance": "IAIKM", "amyloid nucleation score": "3.25 ± 0.08"}, {"substance": "CHVVVVLEF", "amyloid nucleation score": "2.71 ± 0.078"}, {"substance": "NRPLCSFDTEFDLYEQIHLR", "amyloid nucleation score": "4.38 ± 0.086"}, {"substance": "YLVELNV", "amyloid nucleation score": "0.344 ± 0.56"}, {"substance": "KMDSRSKTMRWYSCGSD", "amyloid nucleation score": "1.53 ± 0.26"}, {"substance": "LMYTFVGCSINVCFGGSGCL", "amyloid nucleation score": "8.873 ± 0.034"}, {"substance": "FSSIDWLCRRCSQGNRAGID", "amyloid nucleation score": "0.371 ± 0.66"}, {"substance": "SGIADEMGSRLTRKLVNRFY", "amyloid nucleation score": "-0.466 ± 0.55"}, {"substance": "NTWTCAQPRVTLLAQLYELN", "amyloid nucleation score": "3.1 ± 0.12"}, {"substance": "YNGPLHYDRNDSSVKQSVFI", "amyloid nucleation score": "inactive"}]}]}
